Experiments:
Details in all cases: tags: C-terminal His6
[1] = target: T1, N123 (DNA-binding domain of Sleeping Beauty transposase) (synthetic (reconstructed salmonid)); assay: EMSA; binding not affected
T1 chain: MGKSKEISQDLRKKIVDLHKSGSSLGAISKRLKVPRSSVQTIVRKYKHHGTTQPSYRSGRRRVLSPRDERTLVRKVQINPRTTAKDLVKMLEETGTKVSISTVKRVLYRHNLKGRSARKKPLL
From the text: (§1) DNA fragments with one to three DRs were obtained by digestion of the appropriate transposon with HindIII and SacI. To determine the core sequence for SB binding, DNA fragments with mutations in the outer or inner DR were made by PCR followed by enzyme digestion. DNA fragments were end-labeled with [α³²P]-dCTP. Nucleoprotein complexes were formed in a buffer as described by Ivics et al., Cell, 1997;91:501-510. Reactions contained 100 picogram (pg) DNA probes, 1 microgram (μg) poly[dI:dC], and 1 microliter (μl) N123 in a total volume of 20 μl. After a 60 minutes incubation at 30° C., […] of loading dye containing 50% glycerol and bromophenol blue were added and the samples were loaded onto 4%-6% polyacrylamide gels, which were run for 2-3 hours at 120 volts. 4% gels were used for EMSA assays with triple-DR probes while 6% gels were used with double-DR probes. Competitor concentrations were as described in Ivics et al., Cell, 1997;91:501-510. Dried gels were exposed to the phosphor for 6-9 hours and imaged on a Storm 840 Imager (Molecular Dynamics).

[2] = target: T1, N123 (DNA-binding domain of Sleeping …); assay: EMSA; binding abolished
From the text: as §1

[3] = target: T1, N123 (DNA-binding domain of Sleeping …); assay: competition; weaker competitor than Li
From the text: as §1
(§2) The initial step of SB transposition involves the specific binding of transposase to both ITRs of SB transposon. Two DRs in each ITR are required because deletion of one or the both severely reduces transposition (Izsvák et al., J. Mol. Biol., 2000;302:93-102). […]

[4] = target: T1, N123 (DNA-binding domain of Sleeping …); assay: EMSA; still binds
From the text: as §1

[5] = target: T1, N123 (DNA-binding domain of Sleeping …); assay: competition; binds more tightly than Lo
From the text: as §1, §2

B1: Lo(S4-6) (dsDNA)
DNA 1: TACAGCCCAAGTCGGAAGTTTACATACACTTAAG
DNA 2: CTTAAGTGTATGTAAACTTCCGACTTGGGCTGTA
- binding result [1]: binds

B2: Lo(S1,3) (dsDNA)
DNA 1: TAAAATTGAAGTCGGAAGTTTACATACACTTAAG
DNA 2: CTTAAGTGTATGTAAACTTCCGACTTCAATTTTA
- binding result [1]: binds

B3: Lo(S27-29) (dsDNA)
DNA 1: TACAGTTGAAGTCGGAAGTTTACATACATGGAAG
DNA 2: CTTCCATGTATGTAAACTTCCGACTTCAACTGTA
- binding result [2]: no binding

B4: Lo(S28-30) (dsDNA)
DNA 1: TACAGTTGAAGTCGGAAGTTTACATACACGGGAG
DNA 2: CTCCCGTGTATGTAAACTTCCGACTTCAACTGTA
- binding result [1]: binds

B5: Lo(S10-12) (dsDNA)
DNA 1: TACAGTTGAAGAACGAAGTTTACATACACTTAAG
DNA 2: CTTAAGTGTATGTAAACTTCGTTCTTCAACTGTA
- binding result [2]: no binding

B6: Lo(S3) (dsDNA)
DNA 1: TACAATTGAAGTCGGAAGTTTACATACACTTAAG
DNA 2: CTTAAGTGTATGTAAACTTCCGACTTCAATTGTA
- binding result [1]: binds

B7: Lo (dsDNA)
DNA 1: TACAGTTGAAGTCGGAAGTTTACATACACTTAAG
DNA 2: CTTAAGTGTATGTAAACTTCCGACTTCAACTGTA
- binding result [3]: binds

B8: Lo(delta8-11) (dsDNA)
DNA 1: TACAGTTGAGGAAGTTTACATACACTTAAG
DNA 2: CTTAAGTGTATGTAAACTTCCTCAACTGTA
- binding result [2]: no binding

B9: Li/Lo(H) (dsDNA)
DNA 1: TCCAGTGGGTCAGAAGTTTACATACACTTAAG
DNA 2: CTTAAGTGTATGTAAACTTCTGACCCACTGGA
modifications: [none]
- binding result [4]: binds

B10: Li (dsDNA)
DNA 1: TCCAGTGGGTCAGAAGTTTACATACACTAAGT
DNA 2: ACTTAGTGTATGTAAACTTCTGACCCACTGGA
- binding result [5]: binds

B11: Lo(S7-9) (dsDNA)
DNA 1: TACAGTTGCCCTCGGAAGTTTACATACACTTAAG
DNA 2: CTTAAGTGTATGTAAACTTCCGAGGGCAACTGTA
- binding result [1]: binds
